The test system of this assay is CD3-Fc-fusion protein. Put plainly: ELISA analysis of TCO- and DBCO-conjugated scFv specific for CD3. It counts as binding. The note with it: anti-PD1 scFv negative control, anti-CD3 scFv positive control. How it is done: The DNA sequence encoding SEQ ID NO: 42 was synthesized and expressed as in the above Examples. The sequences of VL and VH of scFv specific for CD3 were those of VL and VH of mutated Teplizumab. For the conjugation with Mal-PEG3-TCO and Mal-PEG5-DBCO (Conju-probe, Inc.), the cysteine residue at the C-terminal end of the purified scFv of the mutated teplizumab was reduced by incubating 5 mM DTT at room temperature for 4 hours with gentle shaking. The buffer of reduced anti-CD3 scFv was exchanged to sodium phosphate buffer (100 mM sodium phosphate, pH7.0, 50 mM NaCl, and 5 mM EDTA) by using NAP-10 Sephadex G-25 column. After the reduction reaction and buffer exchange, conjugation was conducted overnight at room temperature in a reaction molar ratio of 1:1 ([Mal-PEG3-TCO or Mal-PEG5-DBCO:[scFv]]. The excess crosslinker was removed by a desalting column and the TCO-conjugated and DBCO-conjugated scFv products were analyzed.
Chain of CD3-Fc-fusion protein (P07766 23-126 limits assumed): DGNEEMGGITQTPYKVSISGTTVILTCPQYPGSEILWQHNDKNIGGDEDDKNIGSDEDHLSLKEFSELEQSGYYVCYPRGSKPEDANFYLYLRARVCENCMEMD
The purity of TCO-conjugated scFvs specific for CD3 was identified through Coomassie staining of 12% SDS-PAGE (data not shown). FIG. 23A and […] show, respectively, the ELISA analysis of TCO-conjugated scFv and DBCO-conjugated scFv specific for CD3, in which anti-PD1 scFv and anti-CD3 scFv were used as a negative control and positive control, respectively.

B1: TCO-conjugated scFv: scFv of mutated teplizumab (SEQ ID NO: 42) conjugated with Mal-PEG3-TCO (protein)
scFv: DIQMTQSPSSLSASVGDRVTITCSASSSVSYMNWYQQTPGKAPKRWIYDTSKLASGVPSRFSGSGSGTDYTFTISSLQPEDIATYYCQQWSSNPFTFGQGTKLQITRGSTSGSGKPGSGEGSTKGQVQLVQSGGGVVQPGRSLRLSCKASGYTFTRYTMHWVRQAPGKGLEWIGYINPSRGYTNYNQKVKDRFTISRDNSKNTAFLQMDSLRPEDTGVYFCARYYDDHYSLDYWGQGTPVTVSSGGGGSGGGGSC
modifications: Mal-PEG3-TCO conjugate; mutated teplizumab scFv
In the case of B1, the “binding to CD3-Fc-fusion protein (ELISA)” value is “bound to CD3-Fc-fusion protein”.

B2: DBCO-conjugated scFv specific for CD3: scFv of mutated teplizumab (SEQ ID NO: 42) conjugated with Mal-PEG5-DBCO (protein)
scFv: B1 scFv
modifications: Mal-PEG5-DBCO conjugate; mutated teplizumab scFv
In the case of B2, the “binding to CD3-Fc-fusion protein (ELISA)” value is given as “bound to CD3-Fc-fusion protein”.

For the origin of these results see patent US10010626B2, “Molecular constructs with targeting and effector moieties” (Immunwork Inc., priority 2015, dated 2018).
